Assay results reported in patent US20210253718A1, “FRIZZLED5 PROTEIN-BINDING AGENTS” (Modmab Therapeutics Corporation, priority 2016, published 2021).

T1: FZD5 CRD (Homo sapiens, UniProt Q13467)
T1 construct: K29-T156; GPI anchor signal (C); expressed in transfected cells; host or cells: CHO cells, lentiviral pLenti-puro
T1 sequence (Q13467 29-156): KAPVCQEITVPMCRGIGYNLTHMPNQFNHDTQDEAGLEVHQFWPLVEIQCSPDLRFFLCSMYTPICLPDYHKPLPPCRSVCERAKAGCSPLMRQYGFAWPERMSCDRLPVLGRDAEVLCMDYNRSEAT

T2: FZD6 CRD (Homo sapiens, UniProt O60353)
T2 construct: S20-P146; GPI anchor signal (C); expressed in transfected cells; host or cells: CHO cells, lentiviral pLenti-puro
T2 sequence (O60353 20-146): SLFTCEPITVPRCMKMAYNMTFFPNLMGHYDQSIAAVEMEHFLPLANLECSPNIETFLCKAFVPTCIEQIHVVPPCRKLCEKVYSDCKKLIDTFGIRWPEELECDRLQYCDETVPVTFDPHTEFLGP

T3: FZD8 CRD (Homo sapiens, UniProt Q9H461)
T3 construct: K31-D155; GPI anchor signal (C); expressed in transfected cells; host or cells: CHO cells, lentiviral pLenti-puro
T3 sequence (Q9H461 31-155): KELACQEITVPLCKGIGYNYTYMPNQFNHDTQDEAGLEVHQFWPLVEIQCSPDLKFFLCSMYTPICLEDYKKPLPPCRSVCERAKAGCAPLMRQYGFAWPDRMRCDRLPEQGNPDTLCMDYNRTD


Columns and labels:
[1] = target: T4, FZD2 CRD (Homo sapiens, UniProt Q14332); test: Immunofluorescence of anti-FZD5 Fab binding to CHO cells overexpressing Frizzled CRD; parameters: key: −: no binding; +: very weak binder; ++: weak binder; +++: good binder; ++++: very good binder
T4 construct: D35-P161; GPI anchor signal (C); expressed in transfected cells; host or cells: CHO cells, lentiviral pLenti-puro
Procedure, shortened: (§1)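 CHO cell lines each displaying a myc-tagged Frizzled CRD on the plasma membrane via GPI anchor. Recombinant anti-FZD5 Fab binding detected by immunofluorescence and flow cytometry.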

[2] = target: T1, FZD5 CRD; test: as above; parameters: key: −: no binding; +: very weak binder; ++: weak binder; +++: good binder; ++++: very good binder
Procedure, shortened: as §1

[3] = target: T2, FZD6 CRD; test: as above; parameters: key: −: no binding; +: very weak binder; ++: weak binder; +++: good binder; ++++: very good binder
Procedure, shortened: as §1

[4] = target: T5, FZD7 CRD (Homo sapiens, UniProt O75084); test: as above; parameters: key: −: no binding; +: very weak binder; ++: weak binder; +++: good binder; ++++: very good binder
T5 construct: D45-S169; GPI anchor signal (C); expressed in transfected cells; host or cells: CHO cells, lentiviral pLenti-puro
Procedure, shortened: as §1

[5] = target: T3, FZD8 CRD; test: as above; parameters: key: −: no binding; +: very weak binder; ++: weak binder; +++: good binder; ++++: very good binder
Procedure, shortened: as §1

[6] = tested on: ASPC-1 cells; test: Effect of anti-FZD5 Fabs on proliferation of pancreatic cancer cell lines (percent growth inhibition); type: cell-based, human; details: Fab 10 μg/ml
Experimental: (§2) The effect of presently disclosed anti-FZD5 Fabs on proliferation of RNF43 loss-of-function mutant pancreatic cancer cell lines HPAFII, PATU8988S and ASPC-1; and on pancreatic cancer cell line RWP1, was tested at […] and 10 μg/ml.

[7] = tested on: HPAFII cells; test: as above; type: cell-based, human; details: for percent growth inhibition, HPAFII 2 μg/ml: Fab 2 μg/ml; for percent growth inhibition, HPAFII 10 μg/ml: Fab 10 μg/ml
Experimental: as §2

[8] = tested on: PATU8988S cells; test: as above; type: cell-based, human; details: Fab 10 μg/ml
Experimental: as §2

[9] = tested on: RWP1 cells; test: as above; type: cell-based, human; details: Fab 10 μg/ml
Experimental: as §2

[10] = tested on: CHO cells not expressing Frizzled CRD; test: Flow cytometry of anti-FZD5 Fab binding to CHO cells not expressing Frizzled CRD (background)
Excerpt: The binding of anti-FZD5 Fabs to cell surface-expressed Frizzled protein was further determined for each member of the Frizzled family via flow cytometry and immunofluorescence analysis of a panel of 10 CHO cell lines, each ectopically over-expressing the extracellular cysteine-rich domain (CRD) of a different Frizzled protein family member.

[11] = tested on: PATU8988S cells; test: Effect of anti-FZD5 Fabs on proliferation of pancreatic cancer cell lines (percent growth inhibition); type: cell-based, human; details: Fab 2 μg/ml
[12] = tested on: ASPC-1 cells; test: as above; type: cell-based, human; details: Fab 2 μg/ml
[13] = tested on: RWP1 cells; test: as above; type: cell-based, human; details: Fab 2 μg/ml

Molecule	Immunofluorescence binding, Frizzled CRD overexpressed on CHO cells: FZD2 [1]	Immunofluorescence binding, Frizzled CRD overexpressed on CHO cells: FZD5 [2]	Immunofluorescence binding, Frizzled CRD overexpressed on CHO cells: FZD6 [3]	Immunofluorescence binding, Frizzled CRD overexpressed on CHO cells: FZD7 [4]	Immunofluorescence binding, Frizzled CRD overexpressed on CHO cells: FZD8 [5]	percent growth inhibition, ASPC-1 10 μg/ml [6] [%]	percent growth inhibition, HPAFII 2 μg/ml [7] [%]	percent growth inhibition, HPAFII 10 μg/ml [7] [%]	percent growth inhibition, PATU8988s 10 μg/ml [8] [%]	percent growth inhibition, RWP1 10 μg/ml [9] [%]	Median fluorescence, Frizzled CRD overexpressed on CHO cells: None [10]	percent growth inhibition, PATU8988s 2 μg/ml [11] [%]	percent growth inhibition, ASPC-1 2 μg/ml [12] [%]	percent growth inhibition, RWP1 2 μg/ml [13] [%]
Fab-2933: anti-FZD5 Fab with antibody variable region Fv-2933; CDR SEQ ID NOs: 35, 36, 72, 109, 148, 177 (antibody, V domains shown) VH: EVQLVESGGGLVQPGGSLRLSCAASGFNLYSSYMHWVRQAPGKGLEWVASIYSSYGYTSYADSVKGRFTISADTSKNTAYLQMNSLRAEDTAVYYCARTVRGSKKPYFSGWAMDYWGQGTLVTVSS VL: DIQMTQSPSSLSASVGDRVTITCRASQSVSSAVAWYQQKPGKAPKLLIYSASSLYSGVPSRFSGSRSGTDFTLTISSLQPEDFATYYCQQFWWYASWLFTFGQGTKVEIK	−	++++	−	+	+	19.44	−14.19	−6.12	−17.17	27.16	3.92	6.02	−1.03	−21.16
Fab-2930: anti-FZD5 Fab with antibody variable region Fv-2930; CDR SEQ ID NOs: 35, 36, 69, 107, 145, 153 (antibody, V domains shown) VH: EVQLVESGGGLVQPGGSLRLSCAASGFNLSYYYIHWVRQAPGKGLEWVASIYPYSGSTSYADSVKGRFTISADTSKNTAYLQMNSLRAEDTAVYYCARGALDYWGQGTLVTVSS VL: DIQMTQSPSSLSASVGDRVTITCRASQSVSSAVAWYQQKPGKAPKLLIYSASSLYSGVPSRFSGSRSGTDFTLTISSLQPEDFATYYCQQWYGPYLITFGQGTKVEIK	−	++++	−	+	+	37.33	−10.77	7.81	−13.64	10.72	4.66	−0.39	21.31	17.91
Fab-2934: anti-FZD5 Fab with antibody variable region Fv-2934; CDR SEQ ID NOs: 35, 36, 73, 110, 149, 155 (antibody, V domains shown) VH: EVQLVESGGGLVQPGGSLRLSCAASGFNISYSYMHWVRQAPGKGLEWVASIYSSSGSTSYADSVKGRFTISADTSKNTAYLQMNSLRAEDTAVYYCARGAIDYWGQGTLVTVSS VL: DIQMTQSPSSLSASVGDRVTITCRASQSVSSAVAWYQQKPGKAPKLLIYSASSLYSGVPSRFSGSRSGTDFTLTISSLQPEDFATYYCQQWYHYGLITFGQGTKVEIK	−	++++	−	−	+	36.76	3.40	20.44	1.78	0.90	3.13	−9.14	26.80	7.90
Fab-2932: anti-FZD5 Fab with antibody variable region Fv-2932; CDR SEQ ID NOs: 35, 36, 71, 108, 147, 153 (antibody, V domains shown) VH: EVQLVESGGGLVQPGGSLRLSCAASGFNISYSYMHWVRQAPGKGLEWVASIYSSYSSTSYADSVKGRFTISADTSKNTAYLQMNSLRAEDTAVYYCARGALDYWGQGTLVTVSS VL: DIQMTQSPSSLSASVGDRVTITCRASQSVSSAVAWYQQKPGKAPKLLIYSASSLYSGVPSRFSGSRSGTDFTLTISSLQPEDFATYYCQQWYGSFALITFGQGTKVEIK	−	++++	−	++	+	28.62	−0.17	3.21	−8.85	25.69	3.59	−14.70	28.71	32.22
Fab-2935: anti-FZD5 Fab with antibody variable region Fv-2935; CDR SEQ ID NOs: 35, 36, 74, 111, 150, 178 (antibody, V domains shown) VH: EVQLVESGGGLVQPGGSLRLSCAASGFNIYYYYIHWVRQAPGKGLEWVASIYPSSGSTSYADSVKGRFTISADTSKNTAYLQMNSLRAEDTAVYYCARAAFDYWGQGTLVTVSS VL: DIQMTQSPSSLSASVGDRVTITCRASQSVSSAVAWYQQKPGKAPKLLIYSASSLYSGVPSRFSGSRSGTDFTLTISSLQPEDFATYYCQQWYGGYALITFGQGTKVEIK	−	++++	−	−	+	24.63	−9.18	−10.62	−22.12	10.15	3.46	2.48	4.75	−14.51
